Changes are numbered by the printed parent chain.

Sequences and labels used below:
B1: m2.8 (dsDNA)
DNA 1: ATTTCCCGGTATTTCAATTTGTCAAGGGAT
DNA 2: ATCCCTTGACAAATTGAAATACCGGGAAAT
B2: m2.5 (dsDNA)
DNA 1: ATTTCCCGGTATTTCAATTTGTCAGAATAT
DNA 2: ATATTCTGACAAATTGAAATACCGGGAAAT
B3: m1 (dsDNA)
DNA 1: B1 DNA 1 with G27A, G28T
DNA 2: B2 DNA 2 with T5C, C6T
B4: ICS1 -725 (dsDNA)
DNA 1: ATTTTAGAAATGTGTCAAAATTTAAAGGAG
DNA 2: CTCCTTTAAATTTTGACACATTTCTAAAAT
B5: m2 (dsDNA)
DNA 1: ATTTCTGACTATTTCAATTTCCGGAGATAT
DNA 2: ATATCTCCGGAAATTGAAATAGTCAGAAAT
B6: ICS1 -278 (dsDNA)
DNA 1: CTAATAATAATAGATCAAACAATTAACTGA
DNA 2: TCAGTTAATTGTTTGATCTATTATTATTAG
B7: ICS1 -648 (dsDNA)
DNA 1: TTGCAATTTGTAGTGACATGTAATGTTTTT
DNA 2: AAAAACATTACATGTCACTACAAATTGCAA
B8: ICS1 -844 WK-like box (dsDNA)
DNA 1: AATAGTATTGATTTTCCAAATTTAATTATA
DNA 2: TATAATTAAATTTGGAAAATCAATACTATT
B9: m2.1 (dsDNA)
DNA 1: ATTTCCCGGTATTTCAATGGGTCAAGATAT
DNA 2: ATATCTTGACCCATTGAAATACCGGGAAAT
B10: m1+2 (dsDNA)
DNA 1: ATTTCCCGGTATTTCAATTTCCGGAGATAT
DNA 2: ATATCTCCGGAAATTGAAATACCGGGAAAT
B11: m2.4 (dsDNA)
DNA 1: B2 DNA 1 with G25C, A26C
DNA 2: B2 DNA 2 with T5G, C6G
B12: m2.7 (dsDNA)
DNA 1: ATTTCCCGGTATTTCACCTTGTCAAGATAT
DNA 2: ATATCTTGACAAGGTGAAATACCGGGAAAT
B13: m2.3 (dsDNA)
DNA 1: B10 DNA 1 with C21G, C22T
DNA 2: B10 DNA 2 with G9A, G10C
B14: m2.2 (dsDNA)
DNA 1: B10 DNA 1 with G23C, G24A
DNA 2: B10 DNA 2 with C7T, C8G

The target in one data set is T1, GST-WRKY28 (Arabidopsis thaliana, UniProt Q8VWJ2 1-318). Nature of the data set: EMSA; unaltered binding; 0.5 ug protein, ~0.01 pmol probe; 3 uL 5x buffer (20% glycerol, 5 mM MgCl2, 2.5 mM EDTA, 2.5 mM DTT, 250 mM NaCl, 50 mM Tris-HCl pH 7.5, 0.25 mg/mL poly(dI-dC)) in 14 uL + 1 uL probe (final about 50 mM NaCl, 10 mM Tris, 1 mM MgCl2); room temperature, 20 min. The following applies: protein: recombinant; tags: N-terminal GST (pGEX-KG); label: 32P-dCTP end-fill (Klenow); 5'-GGG overhangs filled in with Klenow. In general terms: Mobility shift assays separate free from complexed probe on a gel.
T1 sequence (Q8VWJ2 whole entry): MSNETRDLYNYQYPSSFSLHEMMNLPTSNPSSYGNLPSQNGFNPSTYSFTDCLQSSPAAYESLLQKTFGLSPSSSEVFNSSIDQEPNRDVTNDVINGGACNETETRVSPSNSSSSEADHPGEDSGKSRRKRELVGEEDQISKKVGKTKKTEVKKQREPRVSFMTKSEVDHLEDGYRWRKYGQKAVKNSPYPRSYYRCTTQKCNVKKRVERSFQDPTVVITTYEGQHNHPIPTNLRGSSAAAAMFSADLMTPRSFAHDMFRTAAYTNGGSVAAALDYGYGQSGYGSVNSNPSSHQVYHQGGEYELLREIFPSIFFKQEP
Take B1: the binding result is recorded as “binds”.

A further data set addresses T1, GST-WRKY28. Briefly: EMSA; as strong as wild type; 0.5 ug protein, ~0.01 pmol probe; 3 uL 5x buffer (20% glycerol, 5 mM MgCl2, 2.5 mM EDTA, 2.5 mM DTT, 250 mM NaCl, 50 mM Tris-HCl pH 7.5, 0.25 mg/mL poly(dI-dC)) in 14 uL + 1 uL probe (final about 50 mM NaCl, 10 mM Tris, 1 mM MgCl2); room temperature, 20 min. The conditions noted are these: protein: recombinant; tags: N-terminal GST (pGEX-KG); label: 32P-dCTP end-fill (Klenow); 5'-GGG overhangs filled in with Klenow.
For B2, the binding result is recorded as “binds”.

The target in the next data set is T1, GST-WRKY28. Nature of the data set: EMSA; 0.5 ug protein, ~0.01 pmol probe; 3 uL 5x buffer (20% glycerol, 5 mM MgCl2, 2.5 mM EDTA, 2.5 mM DTT, 250 mM NaCl, 50 mM Tris-HCl pH 7.5, 0.25 mg/mL poly(dI-dC)) in 14 uL + 1 uL probe (final about 50 mM NaCl, 10 mM Tris, 1 mM MgCl2); room temperature, 20 min. The following applies: protein: recombinant; tags: N-terminal GST (pGEX-KG); label: 32P-dCTP end-fill (Klenow); 5'-GGG overhangs filled in with Klenow.
As for B3, the binding result is “binds”.

On to B4, for which the binding result was “no binding”.

For B5, the binding result is recorded as “binds”.

For B6, the binding result is reported as “no binding”.

Take B7: the binding result is “no binding”.

On to B8, for which the binding result was “no binding”.

For the molecule B9, the binding result is reported as “binds”.

For B10, the binding result is “no binding”.

Consider B11, for which the binding result is recorded as “binds”.

As to B12, the binding result is “no binding”.

With B13, the binding result is recorded as “no binding”.

Turning to B14, the binding result is given as “no binding”.

The values are drawn from publication PMC3120740, “WRKY Transcription Factors Involved in Activation of SA Biosynthesis Genes”.
